The results in this text go back to patent US20030099647A1 (Amgen, published 2003).

The target of the assay is T1, CHO expressed human interferon gamma (hIFNγ) (human, UniProt P01579 24-161, glycosylated (highly glycosylated form purified)).
T1 construct: mature; The form 'mature' is inferred from secretion into conditioned medium; also called hu-IFNγ; hu IFNγ
T1 sequence (looked up): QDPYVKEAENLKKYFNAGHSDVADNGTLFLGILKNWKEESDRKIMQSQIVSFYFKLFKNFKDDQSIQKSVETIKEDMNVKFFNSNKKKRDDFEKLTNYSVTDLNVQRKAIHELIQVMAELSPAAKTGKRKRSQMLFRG
Briefly: BIAcore neutralization assay; inhibition of hu IFNγ binding to IFNγ-R1.

B1: BS-B IgG (antibody, V domains shown)
VH: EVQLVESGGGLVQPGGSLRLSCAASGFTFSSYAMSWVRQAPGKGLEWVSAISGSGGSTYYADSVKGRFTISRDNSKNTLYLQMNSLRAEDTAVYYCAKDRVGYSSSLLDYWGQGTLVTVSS
VL: NFMLTQPHSVSESPGKTVTISCTRSSGSIASYYVQWYQQRPGSSPTTVIYEDDQRPSGVPDRFSGSIDSASNSASLTISGLQTEDEADYYCQSYDRNSLVFGGGTKLTVLG
notes: The construction is described for BS-A; the others were cloned 'using similar procedures'; The VH limits 1-121 come from the germline comparison legend; also called BS-B full-length human IgG1 antibody; not shown: human IgG1 constant region (CH1, hinge, CH2 and CH3 domains) of plasmid pDSRα19:hIgG1 CH
With B1, the IC50 (as a rule, the concentration that gives 50% inhibition) amounted to 9 nM. This counts as single-digit nanomolar.
